Test results from US20040120954A1, “Regulation of mt1-mmp activity” (priority 2000, published 2004).

Tests used:
proMMP-2 = biological target: T1, proMMP-2 (Homo sapiens, UniProt P08253); test: ProMMP-2 binding assay on transfected COS1 cells; assay type: cell-based; details: COS1 cells co-transfected with MT1-MMP (FIG. 29)
T1 construct: made in house; host or cells: HighFive insect cells infected with recombinant baculovirus; purified from culture supernatant
T1 sequence (P08253 30-660 limits assumed): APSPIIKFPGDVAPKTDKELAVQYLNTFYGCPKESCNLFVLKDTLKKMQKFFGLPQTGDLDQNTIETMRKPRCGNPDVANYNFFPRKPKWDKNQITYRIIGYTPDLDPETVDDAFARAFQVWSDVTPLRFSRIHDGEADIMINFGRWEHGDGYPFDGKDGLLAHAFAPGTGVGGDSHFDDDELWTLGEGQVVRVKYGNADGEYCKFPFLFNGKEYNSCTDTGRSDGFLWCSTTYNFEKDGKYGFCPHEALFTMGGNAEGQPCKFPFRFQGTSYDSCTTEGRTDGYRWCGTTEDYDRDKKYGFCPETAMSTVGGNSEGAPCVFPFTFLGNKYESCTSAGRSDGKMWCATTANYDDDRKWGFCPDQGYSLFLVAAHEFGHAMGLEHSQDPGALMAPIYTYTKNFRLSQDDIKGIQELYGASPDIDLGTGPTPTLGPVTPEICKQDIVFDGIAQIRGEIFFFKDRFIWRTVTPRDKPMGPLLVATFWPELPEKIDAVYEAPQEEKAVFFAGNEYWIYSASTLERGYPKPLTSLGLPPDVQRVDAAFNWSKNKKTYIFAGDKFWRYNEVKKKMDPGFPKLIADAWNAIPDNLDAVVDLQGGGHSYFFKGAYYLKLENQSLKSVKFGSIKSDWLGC
Protocol: Transfected COS1 cells were cultured in a 24-well plate (0.2×10^4/well). Forty-eight hours after transfection, the cells were washed three times with serum-free DMEM, and incubated with purified proMMP-2 (2 μg/ml) in the serum-free DMEM at 25° C. for 1 hr. The cells were then washed three times with serum-free DMEM containing 5% dimethyl sulfoxide (DMSO) to remove free proMMP-2, and lysed in 50 μl of a non-reducing SDS-loading buffer. MMP-2 bound to the cells was analyzed by gelatin zymography.

HT1080 cells = test: Matrigel invasion assay (modified Boiden-chamber method); assay type: cell-based, human; details: HT1080 cells transfected with the expression plasmid (with GFP), 14 hrs (FIG. 15)
Protocol: Matrigel Invasion Chambers were prepared according to the manufacturer's instructions (Becton Dickinson Labware, MA, USA) by coating, with […] of Matrigel, the 8 μm-pore sized membrane of the culture inserts for 24-well plates (Falcon). A 0.5 ml aliquot of transfected HT1080 cell suspension at 0.1×10^5/ml was seeded on the upper chamber and incubated at 37° C. in a humidified chamber. Hepatocyte growth factor (Toyobo; 10 ng/ml) was added to the lower chamber as a chemo-attractant. After 14 hrs of incubation, cells remaining on the upper surface of the membrane were removed, and cells on the lower surface were fixed with 3% para-formaldehyde in PBS. Green fluorescent protein (GFP)-positive cells that had invaded to the lower, surface were counted using fluorescence microscopy (×40).
Cells were transiently transfected with a vector for MT1PEX-F, together with an expression vector for green fluorescent protein (GFP), and GFP-positive invading cells were counted under fluorescence microscopy. HT1080 cells were co-transfected with expression vectors for MT1PEX-F and GFP, or with an expression vector for GFP alone. The cells were assayed for Matrigel invasion as described below. The modified Boiden-chamber method was carried out. […]
TIMP-2 at 0.5 μg/ml was added to the upper and lower chambers. GFP-positive cells on the surface of the lower chamber were counted using fluorescence microscopy. […]

Substance: MT1PEX-F: Catalytic domain-deleted FLAG-tagged MT1-MMP (Δ Tyr112-Pro312), expressed by transfection
- effect on proMMP-2 binding to the cell surface (proMMP-2): not affected
- suppression of Matrigel invasion (HT1080 cells): 70%
